# T1: in-vitro translated Hh protein (Drosophila melanogaster, UniProt Q02936)
# T1 construct: The full length form of the hh protein (F) migrates with a mobility corresponding to a relative molecular mass of 46 kD; made in house; host or cells: cell-free: TNT coupled transcription-translation system (Promega)
# T1 sequence (Q02936 1-471): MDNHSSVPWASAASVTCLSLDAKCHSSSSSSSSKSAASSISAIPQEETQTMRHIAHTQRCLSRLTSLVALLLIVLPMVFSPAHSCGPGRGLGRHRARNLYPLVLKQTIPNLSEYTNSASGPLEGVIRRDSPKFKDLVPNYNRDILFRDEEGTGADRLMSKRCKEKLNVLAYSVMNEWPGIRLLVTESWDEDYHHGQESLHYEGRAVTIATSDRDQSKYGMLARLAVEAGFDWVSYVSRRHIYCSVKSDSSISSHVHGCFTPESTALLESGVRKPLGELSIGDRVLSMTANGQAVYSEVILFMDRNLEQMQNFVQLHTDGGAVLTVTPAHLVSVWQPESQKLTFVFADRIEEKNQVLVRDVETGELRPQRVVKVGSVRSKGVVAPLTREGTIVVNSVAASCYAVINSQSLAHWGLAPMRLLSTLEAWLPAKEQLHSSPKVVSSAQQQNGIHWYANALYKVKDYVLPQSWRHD
# B1: H270A: zebrafish shh protein with H270A mutation (protein, UniProt Q92008 24-418, looked up, variant H270A)
# Sonic hedgehog protein: CGPGRGYGRRRHPKKLTPLAYKQFIPNVAEKTLGASGRYEGKITRNSERFKELTPNYNPDIIFKDEENTGADRLMTQRCKDKLNSLAISVMNHWPGVKLRVTEGWDEDGHHFEESLHYEGRAVDITTSDRDKSKYGTLSRLAVEAGFDWVYYESKAHIHCSVKAENSVAAKSGGCFPGSALVSLQDGGQKAVKDLNPGDKVLAADSAGNLVFSDFIMFTDRDSTTRRVFYVIETQEPVEKITLTAAALLFVLDNSTEDLHTMTAAYASSVRAGQKVMVVDDSGQLKSVIVQRIYTEEQRGSFAPVTAHGTIVVDRILASCYAVIEDQGLAHLAFAPARLYYYVSSFLFPQNSSSRSNATLQQEGVHWYSRLLYQMGTWLLDSNMLHPLGMSVNSS
# B2: soybean trypsin inhibitor: proteinase inhibitor (protein, UniProt P01070 25-205, looked up)
# Trypsin inhibitor A: DFVLDNEGNPLENGGTYYILSDITAFGGIRAAPTGNERCPLTVVQSRNELDKGIGTIISSPYRIRFIAEGHPLSLKFDSFAVIMLCVGIPTEWSVVEDLPEGPAVKIGENKDAMDGWFRLERVSDDEFNNYKLVFCPQQAEDDKCGDIGISIDHDDGTRRLVVSKNKPLVVQFQKLDKESL
# B3: noggin: independent neural inducer (protein, UniProt P49011 20-222, looked up)
# Noggin: RIDQGGCQHYLHIRPAPSENLPLVDLIEHPDPIYDPKEKDLNETLLRTLMVGHFDPNFMATILPEERLGVEDLGELDLLLRQKPSGAMPAEIKGLEFYEGLQSKKHRLSKKLRRKLQMWLWSQTFCPVLYTWNDLGTRFWPRYVKVGSCYSKRSCSVPEGMVCKAAKSMHLTILRWRCQRRVQQKCAWITIQYPVISECKCSC
# B4: Hh-C25: 25 kDa Drosophila Hh-C fragment, residues Cys-258 to Asp-471 (protein)
# chain: CFTPESTALLESGVRKPLGELSIGDRVLSMTANGQAVYSEVILFMDRNLEQMQNFVQLHTDGGAVLTVTPAHLVSVWQPESQKLTFVFADRIEEKNQVLVRDVETGELRPQRVVKVGSVRSKGVVAPLTREGTIVVNSVAASCYAVINSQSLAHWGLAPMRLLSTLEAWLPAKEQLHSSPKVVSSAQQQNGIHWYANALYKVKDYVLPQSWRHD
# B5: activin: recombinant human activin A, transforming growth factor beta family member (protein, UniProt P08476 311-426, looked up)
# Inhibin beta A chain: GLECDGKVNICCKKQFFVSFKDIGWNDWIIAPSGYHANYCEGECPSHIAGTSGSSLSFHSTVINHYRMRGHSPFANLKSCCVPTKLRPMSMLYYDDGQNIIKKDIQNMIVEECGCS
# B6: H273A: zebrafish twhh protein with H273A mutation (protein, UniProt Q90419 27-416, looked up, variant H273A)
# Tiggy-winkle hedgehog protein: CGPGRGYGKRRHPKKLTPLAYKQFIPNVAEKTLGASGKYEGKITRNSERFKELIPNYNPDIIFKDEENTNADRLMTKRCKDKLNSLAISVMNHWPGVKLRVTEGWDEDGHHLEESLHYEGRAVDITTSDRDKSKYGMLSRLAVEAGFDWVYYESKAHIHCSVKAENSVAAKSGGCFPGSGTVTLGDGTRKPIKDLKVGDRVLAADEKGNVLISDFIMFIDHDPTTRRQFIVIETSEPFTKLTLTAAALVFVGNSSAASGITATFASNVKPGDTVLVWEDTCESLKSVTVKRIYTEEHEGSFAPVTAHGTIIVDQVLASCYAVIENHKWAHWAFAPVRLCHKLMTWLFPARESNVNFQEDGIHWYSNMLFHIGSWLLDRDSFHPLGILHLS
# Key:
# [1] = target: T1, in-vitro translated Hh protein; experiment: Proteinase inhibitor studies on auto-proteolysis of in vitro translated Hh protein; assay type: biochemical; settings: inhibitor added to translation reaction
# Method: In some cases the effectiveness of an inhibitor was assayed by determining if addition of an inhibitor to a completed translation reaction will inhibit the self-processing that normally continues to occur.
# [2] = Solubility and proteolytic stability of purified Hh carboxy-terminal fragments; assay type: physicochemical; settings: purified protein
# Method: Protein expression and purification: Drosophila melanogaster Hh protein in which most of the amino-terminai signaling domain and signal sequence have been replaced by a hexa-histidine tag (His6Hh-C25) was expressed as previously described (Porter et al., 1995). SeMet His6Hh-C25 was prepared by expression in E. coli strain B834 (DE3) pLysS, a methionine auxotroph, and growth in minimal media as previously described (Leahy et al., 1994). This His6-taggcd protein was purified on a Ni^++-NTA agarose column and autocleavage stimulated by addition of 50 mM DTT. After removal of the DTT by dialysis, the cleaved protein was passed over a Ni^++-NTA agarose column and the Hh carboxy-terminal domain, Hh-C25, collected in the column run through. Hh-C25 was subjected to limited proteolysis by overnight incubation with 1:500 (w:w) subtilisin (Boehringer Mannheim) at 4° C. A protease-stable fragment of approximately 17 kDa, Hh-C17, was identified by SDS-PAGE and purified by anion-exchange chromatography utilizing a Mono-Q column (Pharmacia). The amino- and carboxy-terminal residues of Hh-C17 were determined to be Cys-258 and Ser-408, respectively, by mass spectral analysis of cyanogen bromide-cleaved fragments. Mass spectral analysis was performed as previously described (Porter et al., 1996a).
# Drosophila melanogaster Hh in which the signal sequence and most of the amino-terminal signaling domain have been replaced by a hexahistidine tag was expressed in E. coli as previously described (Porter et al., 1995). Following purification with Ni^++-NTA agarose, this protein cleaves itself in vitro in the presence of either DTT or cholesterol to liberate the 25 kDa Hh-C fragment (Hh-C25, residues Cys-258 to Asp-471). […] All residues absolutely conserved in Hh-C homologues (Porter et al., 1996a), including the nematode sequences, are contained in Hh-C17. To determine if Hh-C17 retained autoprocessing activity, a mutant version of His-tagged Hh-C containing a termination codon at residue position 409 (His6Hh-C17) was expressed and assayed for autocleavage in the presence of DTT and cholesterol.
# [3] = system: neural and cement gland marker gene expression; experiment: Xenopus animal (blastula) cap explants / Keller sandwiches from RNA-injected embryos, RT-PCR of marker genes; assay type: cell-based
# Method: cDNAs encoding full-length Xenopus hedgehogs, or encoding amino terminal or carboxy terminal domains linked to secretory leader sequences were transcribed in vitro to yield translatable messenger RNA. The synthetic messenger RNAs, and control mRNAs, were microinjected into the animal poles of cleavage stage Xenopus embryos, which were allowed to develop to the blastula stage, at which time the animal cap explants were prepared from the upper one fourth of the embryo. These blastula cap explants were then cultured in vitro in physiological saline in the presence or absence of the transforming growth factor beta family member, recombinant human activin A. All explants were allowed to develop until control embryos had grown to neurula stage, or to tadpole stage. Importantly, blastula caps left untreated differentiate from ectoderm into atypical epidermis. Blastula caps treated with activin differentiate into mesodermal and neural cell types. Thus, the question was whether hedgehog, or its proteolytic derivatives, would change the differentiation of cells away from becoming epidermis, and into another cell type. A second question was whether hedgehog can work with activin to alter the normal response of the tissue to either factor by itself.
# Explants were then extracted to yield mRNA by methods commonly used by those of skill in the art, which was used as template with reverse transcriptase to yield cDNA. The cDNA was then used as template with various sets of primers for PCR for specific genes, reverse-trahscriptase-polymerase chain reaction, or RT-PCR. […] Thus, the darker bands correspond to a greater level of the specific mRNA.
# (A) Isolation of dorsal explants from injected embryos for the preparation of Keller sandwiches (Keller and Danilchik, 1988; Doniach, et al, 1992; redrawn from Doniach, 1993). (B) Keller sandwiches were made from uninjected (lanes 1 and 2) and X-bhh-injected (lanes 3 and 4) embroys, total RNA was isolated when control embryos reached stage 20, and RT-PCR was used to analyze the expression of XAG-1 and neural markers. XAG-1 is a cement gland marker, XANF-2 is an anterior pituitary marker, Otx-A is a forebrain marker, En-2 demarcates the midbrain-hindbrain boundary, Krox-20 marks rhombomeres 3 and 5 of the hindbrain and X/Hbox-6 is a spinal cord marker. N-CAM is a general neural marker whose expression is not restricted along the anteroposterior axis. […] Note that expression of XAG-1 and anterior neural markers is stimulated by X-bhh treatment, whereas expression of posterior neural markers is suppressed.
# auto-proteolysis = experiment: In vitro translation of wild-type and mutant Hh proteins (mapping of auto-proteolysis); assay type: biochemical, Drosophila; zebrafish
molecule,measurement,setting,value
"a, anti-trypsin: proteinase inhibitor, probably α1-antitrypsin",Inhibition of auto-proteolysis of in-vitro translated Hh protein,[1],do not block
CC(C)C[C@H](NC(=O)[C@H]1O[C@@H]1C(=O)O)C(=O)NCCCCN=C(N)N [E-64],Inhibition of auto-proteolysis of in-vitro translated Hh protein,[1],do not block
CC(=O)N[C@@H](CC(C)C)C(=O)N[C@@H](CC(C)C)C(=O)N[C@H](C=O)CCCNC(=N)N [leupeptin],Inhibition of auto-proteolysis of in-vitro translated Hh protein,[1],do not block
"Hh-C17: ~17 kDa subtilisin-stable fragment of Hh-C25, residues Cys-258 to Ser-408",Solubility,[2],improved solubility
same,Stability to proteolysis,[2],protease-stable
prolactin [reference compound],Induction of pituitary gene XANF1B,[3],does not lead to this elevated level of pituitary gene
B1,Auto-proteolysis (processing) of in vitro translated protein,auto-proteolysis,blocked
B2,Inhibition of auto-proteolysis of in-vitro translated Hh protein,[1],do not block
B3,Induction of general neural gene NCAM,[3],"induces the general neural gene, NCAM"
same,Induction of pituitary gene XANF1B,[3],able to induce pituitary gene and forebrain gene
B4,Solubility,[2],poorly soluble in the absence of detergents
same,Stability to proteolysis,[2],susceptible to further proteolytic breakdown when concentrated to 1 mg/ml or greater
B5,Induction of pituitary gene XANF1B,[3],also express the pituitary gene
B6,Auto-proteolysis (processing) of in vitro translated protein,auto-proteolysis,blocked

# From patent US8362216B2, “Method of detection using antibodies that specifically bind hedgehog-derived polypeptides” (The Johns Hopkins University School of Medicine, priority 1994, dated 2013)
